Paper PMC12260418 (Proceedings of the National Academy of Sciences of the …, 2025)
One block for each molecule: values may come before it. Where no end group is shown, it is not given here.

B1: Recombinant TEAD1 (S210-D426) (domain or fragment)
chain: SIGTTKLRLVEFSAFLEQQRDPDSYNKHLFVHIGHANHSYSDPLLESVDIRQIYDKFPEKKGGLKELFGKGPQNAFFLVKFWADLNCNIQDDAGAFYGVTSQYESSENMTVTCSTKVCSFGKQVVEKVETEYARFENGRFVYRINRSPMCEYMINFIHKLKHLPEKYMMNSVLENFTILLVVTNRDTQETLLCMACVFEVSNSEHGAQHHIYRLVKD
B2: biotinylated WT VGLL4 peptide (residues 202-259) (peptide)
peptide: ATTCDPVVEEHFRRSLGKNYKEPEPAPNSVSITGSVDDHFAKALGDTWLQIKAAKDGA
modifications: also: biotinylated, position not given here

Experiments:
[1] = target: TEAD1 (Homo sapiens, UniProt P28347); experiment: SPR of recombinant TEAD1 and VGLL4 peptide with compound; assay type: binding
[2] = target: B2; experiment: SPR
[3] = target: B2; experiment: SPR; remark: listed apart in the source
[4] = target: B1; experiment: SPR

Molecule: B1
- fold increase in affinity with VT-103 against DMSO [2]: ~12 fold
- fold decrease of KD with GNE-7883 against DMSO [3]: ~2 fold

Molecule: B2
- Kd [4]: ~500 nM

Other lines, results leading:

- SPR of recombinant TEAD1 and VGLL4 peptide with compound; TEAD1 AP-MS in cells [1]: ~ 2 fold change in VGLL4-TEAD1 KD
Molecule: GNE-7883

- binding result [4]: binds
B3: biotinylated VGLL4 peptide (residues 202-259), TDU1 mutant (peptide)
peptide: ATTCDPVVEEAARRSLGKNYKEPEPAPNSVSITGSVDDHFAKALGDTWLQIKAAKDGA
modifications: also: biotinylated, position not given here
